Laboratory results reported in the supplement of paper PMC10065799, “High-throughput profiling of sequence recognition by tyrosine kinases and SH2 domains using bacterial peptide display” (eLife, 2023).

Tests used:
SHP2-C SH2 = experiment: SH2 binding enrichment of the phosphorylated peptide, bacterial display (enrichment ratio); higher = better substrate or ligand; peptides without Tyr show the background
Grb2 SH2 = Grb2 SH2 (UniProt P62993); experiment: as above
c-Src SH2 = experiment: as above
AncSZ = experiment: phosphorylation enrichment, bacterial display (enrichment ratio); higher = better substrate or ligand; peptides without Tyr show the background
c-Src = experiment: as above
FGFR3 = FGFR3 (UniProt P22607); experiment: as above
Chain of FGFR3 (P22607 whole entry, looked up): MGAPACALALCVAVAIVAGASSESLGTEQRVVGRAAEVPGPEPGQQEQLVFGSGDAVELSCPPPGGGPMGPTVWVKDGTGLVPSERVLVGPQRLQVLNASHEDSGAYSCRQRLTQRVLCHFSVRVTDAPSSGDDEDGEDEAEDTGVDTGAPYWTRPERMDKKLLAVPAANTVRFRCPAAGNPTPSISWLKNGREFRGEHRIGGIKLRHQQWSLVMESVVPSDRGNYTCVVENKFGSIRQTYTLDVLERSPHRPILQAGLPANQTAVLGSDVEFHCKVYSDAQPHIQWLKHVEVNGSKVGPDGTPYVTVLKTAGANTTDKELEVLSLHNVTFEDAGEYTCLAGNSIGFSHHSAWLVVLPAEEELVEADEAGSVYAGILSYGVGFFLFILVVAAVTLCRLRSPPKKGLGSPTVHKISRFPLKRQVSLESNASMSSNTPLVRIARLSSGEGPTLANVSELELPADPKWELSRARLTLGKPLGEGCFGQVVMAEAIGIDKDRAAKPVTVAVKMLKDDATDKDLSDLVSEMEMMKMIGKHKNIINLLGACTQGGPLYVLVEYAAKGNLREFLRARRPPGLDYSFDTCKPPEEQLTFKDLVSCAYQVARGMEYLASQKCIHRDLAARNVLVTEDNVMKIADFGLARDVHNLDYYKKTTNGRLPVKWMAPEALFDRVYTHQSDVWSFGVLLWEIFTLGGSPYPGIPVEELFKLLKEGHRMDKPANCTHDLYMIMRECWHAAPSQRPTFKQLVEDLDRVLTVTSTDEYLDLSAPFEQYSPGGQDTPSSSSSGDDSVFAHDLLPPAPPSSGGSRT

EPHB1 = EPHB1 (UniProt P54762); experiment: as above
Chain of EPHB1 (P54762 whole entry, looked up): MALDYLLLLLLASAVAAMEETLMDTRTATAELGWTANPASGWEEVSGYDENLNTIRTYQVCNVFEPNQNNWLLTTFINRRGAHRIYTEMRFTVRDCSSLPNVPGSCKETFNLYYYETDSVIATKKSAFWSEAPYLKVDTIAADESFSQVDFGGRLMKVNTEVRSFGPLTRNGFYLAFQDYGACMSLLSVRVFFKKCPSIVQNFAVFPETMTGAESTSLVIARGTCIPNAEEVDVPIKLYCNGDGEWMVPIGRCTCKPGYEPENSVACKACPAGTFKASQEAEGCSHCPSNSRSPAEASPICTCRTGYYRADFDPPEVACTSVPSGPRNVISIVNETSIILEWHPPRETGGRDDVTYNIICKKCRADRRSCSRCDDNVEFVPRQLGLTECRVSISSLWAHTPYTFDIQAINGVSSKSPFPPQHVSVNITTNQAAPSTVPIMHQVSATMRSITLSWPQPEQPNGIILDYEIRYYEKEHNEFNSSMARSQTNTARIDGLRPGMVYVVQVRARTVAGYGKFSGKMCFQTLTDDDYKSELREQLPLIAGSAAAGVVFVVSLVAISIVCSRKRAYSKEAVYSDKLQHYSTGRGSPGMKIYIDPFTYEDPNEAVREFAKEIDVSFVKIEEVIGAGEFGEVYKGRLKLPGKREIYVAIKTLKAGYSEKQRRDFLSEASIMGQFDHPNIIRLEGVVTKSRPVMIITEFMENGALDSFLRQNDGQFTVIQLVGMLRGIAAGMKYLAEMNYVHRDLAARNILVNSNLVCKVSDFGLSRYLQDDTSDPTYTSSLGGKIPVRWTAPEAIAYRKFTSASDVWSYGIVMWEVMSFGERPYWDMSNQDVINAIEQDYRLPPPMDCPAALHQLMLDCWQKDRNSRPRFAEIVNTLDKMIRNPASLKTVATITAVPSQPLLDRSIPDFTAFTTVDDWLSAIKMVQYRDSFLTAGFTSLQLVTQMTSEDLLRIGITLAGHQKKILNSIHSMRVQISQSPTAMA

EPHB2 = EPHB2 (UniProt P29323); experiment: as above
Hck = Hck (UniProt P08631); experiment: as above
Chain of Hck (P08631 whole entry, looked up): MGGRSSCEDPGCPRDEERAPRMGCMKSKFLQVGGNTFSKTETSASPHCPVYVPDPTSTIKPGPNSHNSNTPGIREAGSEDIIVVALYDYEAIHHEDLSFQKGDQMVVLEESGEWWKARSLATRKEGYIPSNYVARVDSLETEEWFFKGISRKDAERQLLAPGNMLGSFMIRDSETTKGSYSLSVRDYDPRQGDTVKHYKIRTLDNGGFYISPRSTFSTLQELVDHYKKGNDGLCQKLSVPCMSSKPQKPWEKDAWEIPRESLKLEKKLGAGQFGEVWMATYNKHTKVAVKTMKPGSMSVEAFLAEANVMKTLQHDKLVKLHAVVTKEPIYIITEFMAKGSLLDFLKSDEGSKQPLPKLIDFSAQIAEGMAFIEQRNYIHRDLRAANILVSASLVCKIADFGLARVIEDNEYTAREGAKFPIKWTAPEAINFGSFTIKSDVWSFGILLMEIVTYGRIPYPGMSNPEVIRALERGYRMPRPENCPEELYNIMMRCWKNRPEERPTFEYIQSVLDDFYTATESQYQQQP

MERTK = MERTK (UniProt Q12866); experiment: as above
Fyn = Fyn (UniProt P06241); experiment: as above
Chain of Fyn (P06241 whole entry, looked up): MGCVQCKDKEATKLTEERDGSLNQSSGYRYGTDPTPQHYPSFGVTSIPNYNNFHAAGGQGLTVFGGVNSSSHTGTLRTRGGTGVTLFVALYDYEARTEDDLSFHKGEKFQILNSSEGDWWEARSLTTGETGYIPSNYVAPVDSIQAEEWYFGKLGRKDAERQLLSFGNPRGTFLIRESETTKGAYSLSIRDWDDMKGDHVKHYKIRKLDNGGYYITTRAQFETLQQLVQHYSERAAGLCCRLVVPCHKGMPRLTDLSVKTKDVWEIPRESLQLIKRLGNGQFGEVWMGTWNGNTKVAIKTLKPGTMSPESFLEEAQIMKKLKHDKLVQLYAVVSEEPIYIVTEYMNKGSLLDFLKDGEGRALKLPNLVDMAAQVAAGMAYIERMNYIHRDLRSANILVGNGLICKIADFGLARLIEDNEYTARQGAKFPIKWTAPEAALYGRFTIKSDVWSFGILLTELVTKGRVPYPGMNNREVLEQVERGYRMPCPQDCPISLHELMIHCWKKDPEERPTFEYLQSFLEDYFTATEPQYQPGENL

Jak2 = Jak2 (UniProt O60674); experiment: as above
Chain of Jak2 (O60674 whole entry, looked up): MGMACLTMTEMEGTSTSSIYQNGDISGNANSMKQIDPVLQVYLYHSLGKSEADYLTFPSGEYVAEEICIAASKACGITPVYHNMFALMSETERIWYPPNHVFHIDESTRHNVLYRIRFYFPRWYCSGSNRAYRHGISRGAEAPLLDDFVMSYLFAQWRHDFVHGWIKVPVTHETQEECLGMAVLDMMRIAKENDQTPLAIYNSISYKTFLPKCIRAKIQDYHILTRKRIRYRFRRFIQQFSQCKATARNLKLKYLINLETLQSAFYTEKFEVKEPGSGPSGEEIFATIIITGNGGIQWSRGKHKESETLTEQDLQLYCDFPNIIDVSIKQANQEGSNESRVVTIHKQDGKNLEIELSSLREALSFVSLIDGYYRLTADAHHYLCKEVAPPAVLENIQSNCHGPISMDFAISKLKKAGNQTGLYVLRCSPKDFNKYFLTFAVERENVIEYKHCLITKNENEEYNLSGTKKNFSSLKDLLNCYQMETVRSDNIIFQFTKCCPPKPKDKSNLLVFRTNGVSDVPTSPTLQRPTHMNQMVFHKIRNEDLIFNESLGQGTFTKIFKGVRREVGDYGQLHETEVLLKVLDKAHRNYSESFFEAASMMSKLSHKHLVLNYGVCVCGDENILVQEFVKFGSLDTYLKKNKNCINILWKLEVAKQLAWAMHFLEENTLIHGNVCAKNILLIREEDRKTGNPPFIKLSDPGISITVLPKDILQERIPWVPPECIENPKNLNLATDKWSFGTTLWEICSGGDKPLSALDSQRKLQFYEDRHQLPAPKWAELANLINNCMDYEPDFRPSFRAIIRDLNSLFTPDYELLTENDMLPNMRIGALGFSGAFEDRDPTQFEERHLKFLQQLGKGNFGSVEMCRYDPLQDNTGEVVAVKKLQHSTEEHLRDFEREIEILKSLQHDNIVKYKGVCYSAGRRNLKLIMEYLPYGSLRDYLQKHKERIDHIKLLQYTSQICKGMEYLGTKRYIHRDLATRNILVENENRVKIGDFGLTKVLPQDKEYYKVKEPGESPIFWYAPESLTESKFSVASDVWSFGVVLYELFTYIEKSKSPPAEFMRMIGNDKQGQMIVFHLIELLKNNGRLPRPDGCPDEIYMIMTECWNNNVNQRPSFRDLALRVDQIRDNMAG

Fes = Fes (UniProt P07332); experiment: as above
FGFR1 = FGFR1 (UniProt P11362); experiment: as above
Chain of FGFR1 (P11362 whole entry, looked up): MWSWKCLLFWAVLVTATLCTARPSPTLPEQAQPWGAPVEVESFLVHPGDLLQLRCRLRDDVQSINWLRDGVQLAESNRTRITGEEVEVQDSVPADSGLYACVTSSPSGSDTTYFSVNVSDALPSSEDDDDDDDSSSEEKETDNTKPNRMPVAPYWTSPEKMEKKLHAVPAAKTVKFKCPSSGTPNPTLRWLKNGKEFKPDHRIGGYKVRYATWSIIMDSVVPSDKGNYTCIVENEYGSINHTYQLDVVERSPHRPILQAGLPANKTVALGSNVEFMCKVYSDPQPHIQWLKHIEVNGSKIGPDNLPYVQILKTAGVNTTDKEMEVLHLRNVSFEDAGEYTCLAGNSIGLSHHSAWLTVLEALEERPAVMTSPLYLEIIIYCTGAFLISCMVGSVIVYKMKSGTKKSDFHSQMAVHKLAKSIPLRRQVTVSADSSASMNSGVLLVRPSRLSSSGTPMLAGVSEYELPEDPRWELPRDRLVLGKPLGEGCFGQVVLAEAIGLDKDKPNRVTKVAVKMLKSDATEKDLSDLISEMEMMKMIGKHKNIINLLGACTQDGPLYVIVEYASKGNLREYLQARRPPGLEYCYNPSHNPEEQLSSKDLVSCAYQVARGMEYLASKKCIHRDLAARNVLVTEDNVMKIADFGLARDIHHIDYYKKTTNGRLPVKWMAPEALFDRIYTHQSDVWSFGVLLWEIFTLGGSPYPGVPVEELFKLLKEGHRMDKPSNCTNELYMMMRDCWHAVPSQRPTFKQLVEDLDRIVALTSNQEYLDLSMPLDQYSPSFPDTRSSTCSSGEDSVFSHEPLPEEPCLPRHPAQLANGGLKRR

Fer (mouse) = experiment: as above
c-Abl (mouse) = experiment: as above
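Throughout, for SH2 binding enrichment of the phosphorylated peptide, bacterial display: peptide library displayed on the E. coli surface as eCPX fusions, selected cells deep-sequenced, score is each peptide's frequency after selection divided by its frequency in the input.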
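Throughout, for phosphorylation enrichment, bacterial display: 11-residue human phosphosite peptides and single-mutation variants displayed on the E. coli surface, counted by deep sequencing, each peptide's frequency after selection divided by its frequency in the unselected input library; frequency after pTyr selection over input frequency; kinase dosed for 20-30% of maximal phosphorylation in three min.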

Row | Sequence | SH2 binding enrichment (SHP2-C SH2) | SH2 binding enrichment (Grb2 SH2) | SH2 binding enrichment (c-Src SH2) | phosphorylation enrichment (AncSZ) | phosphorylation enrichment (c-Src) | phosphorylation enrichment (FGFR3) | phosphorylation enrichment (EPHB1) | phosphorylation enrichment (EPHB2) | phosphorylation enrichment (Hck) | phosphorylation enrichment (MERTK) | phosphorylation enrichment (Fyn) | phosphorylation enrichment (Jak2) | phosphorylation enrichment (Fes) | phosphorylation enrichment (FGFR1) | phosphorylation enrichment (Fer (mouse)) | phosphorylation enrichment (c-Abl (mouse))
1 | FGTAQYCCRMG [LRRK2_Y2023_I2020T_YF] | 0.863 | 0.978 | 0.772 | 0.663 | 0.403 | 0.517 | 0.598 | 8.12 | 0.518 | 1.79 | 0.463 | 0.515 | 0.693 | 0.56 | 0.499 | 1.28
2 | FGVTLYPNSRE [MEP1A_Y472] | 0.858 | 0.891 | 0.638 | 1.02 | 0.541 | 0.766 | 0.675 | 0.68 | 0.599 | 0.714 | 0.432 | 0.92 | 1.17 | 0.556 | 0.398 | 0.995
3 | FIGCIYLFLTK [GARS1_Y414_R412C_YF] | 1.71 | 1.86 | 1.33 | 0.803 | 0.314 | 0.573 | 0.251 | 0.49 | 0.485 | 0.415 | 0.399 | 0.792 | 0.772 | 0.458 | 0.456 | 0.748
4 | FMLFQYLKQIE [RPAP3_Y569_D564Y_YF] | 1.48 | 1.53 | 1.08 | 1.12 | 0.498 | 0.783 | 0.539 | 0.716 | 0.505 | 0.482 | 0.447 | 1.27 | 1.36 | 0.468 | 0.506 | 1.07
5 | FPHVIYARLWR [SMAD4_Y95] | 0.61 | 0.767 | 0.425 | 0.917 | 5.17 | 0.648 | 3.11 | 1.16 | 5.38 | 1.5 | 5.08 | 0.751 | 0.85 | 0.567 | 0.539 | 10.1
6 | FPLELYERVRI [PRKCG_Y312_M317I_YF] | 0.775 | 0.854 | 0.567 | 1.34 | 0.528 | 0.652 | 1.66 | 1.1 | 1.18 | 0.453 | 0.48 | 1.39 | 1.29 | 0.498 | 3.28 | 0.739
7 | FQQLFYLLQIN [IQGAP2_Y890_T894I_YF] | 1.1 | 1.14 | 0.889 | 1.51 | 0.639 | 1.01 | 0.82 | 0.815 | 0.617 | 0.611 | 0.541 | 1.47 | 1.76 | 0.648 | 0.658 | 1.06
8 | FRPPYYHRNCM [HGD_Y334] | 1.23 | 1.21 | 1.15 | 0.708 | 0.442 | 0.504 | 0.429 | 0.449 | 0.432 | 0.426 | 0.418 | 0.89 | 0.88 | 0.513 | 0.477 | 0.799
9 | FSALDYKIFYY [WDPCP_Y210_L205F] | 1.17 | 1.22 | 1.27 | 1.38 | 0.763 | 1.18 | 0.928 | 0.588 | 0.473 | 0.462 | 0.613 | 1.4 | 1.45 | 1.23 | 0.529 | 1.2
10 | FSAPNCCYRCG [PPP2CA_Y265_Y265C] | 0.529 | 0.925 | 0.582 | 1 | 0.5 | 0.76 | 0.671 | 0.676 | 0.55 | 0.505 | 0.518 | 1.02 | 1.21 | 0.489 | 0.547 | 0.833
11 | FSDPDYLAAVD [GLB1_Y154_S149F] | 0.551 | 0.746 | 0.417 | 1.45 | 0.381 | 0.691 | 0.58 | 0.556 | 0.702 | 0.42 | 0.504 | 0.928 | 0.939 | 0.479 | 0.475 | 0.577
12 | FTRNFYVRAVL [CYBA_Y88_YF] | 0.658 | 0.581 | 0.448 | 1.36 | 0.554 | 1.11 | 0.831 | 0.713 | 0.565 | 0.503 | 0.529 | 1.54 | 1.58 | 0.635 | 0.689 | 1.57
13 | GASWRYGSGVS [NEU1_Y242] | 0.721 | 0.728 | 0.461 | 0.637 | 0.42 | 0.617 | 0.512 | 0.432 | 0.505 | 0.413 | 0.479 | 0.566 | 0.782 | 0.531 | 0.428 | 0.506
14 | GCCSWYRGWAP [TIMP3_Y195_Y191C] | 1.14 | 1.56 | 1.24 | 0.944 | 3.1 | 0.966 | 0.563 | 0.565 | 0.784 | 0.459 | 0.651 | 0.705 | 0.967 | 1.38 | 3.84 | 0.59
15 | GCKNHYDKDKP [THAP1_Y14_R13H] | 0.928 | 1.11 | 0.845 | 0.583 | 0.445 | 0.562 | 0.396 | 0.521 | 0.411 | 0.504 | 0.423 | 0.616 | 1.02 | 0.555 | 0.521 | 0.736
16 | GDNNIYVTKII [DLG1_Y349_S347N] | 0.687 | 0.836 | 0.546 | 0.806 | 0.93 | 0.61 | 0.525 | 0.556 | 1.21 | 0.461 | 0.894 | 0.942 | 0.991 | 0.574 | 0.595 | 0.701
17 | GDYYCYLAEVA [YWHAG_Y133_R132C] | 0.862 | 0.851 | 0.681 | 5.32 | 4.14 | 12.3 | 13 | 14.7 | 4.66 | 7.27 | 4.95 | 6.33 | 1.64 | 13.5 | 5.61 | 5.22

Second part, led by results:

Row | SH2 binding enrichment (SHP2-C SH2) | SH2 binding enrichment (Grb2 SH2) | SH2 binding enrichment (c-Src SH2) | Sequence | phosphorylation enrichment (AncSZ) | phosphorylation enrichment (c-Src) | phosphorylation enrichment (FGFR3) | phosphorylation enrichment (EPHB1) | phosphorylation enrichment (EPHB2) | phosphorylation enrichment (Hck) | phosphorylation enrichment (MERTK) | phosphorylation enrichment (Fyn) | phosphorylation enrichment (Jak2) | phosphorylation enrichment (Fes) | phosphorylation enrichment (FGFR1) | phosphorylation enrichment (Fer (mouse)) | phosphorylation enrichment (c-Abl (mouse))
18 | 0.657 | 0.584 | 0.609 | FGLPRYRWLTH [TSPAN12_Y143_YF] | 1.01 | 0.448 | 0.468 | 0.526 | 0.692 | 0.526 | 0.585 | 0.552 | 0.687 | 0.858 | 0.529 | 0.446 | 0.616
19 | 0.805 | 0.766 | 0.682 | FGSGNYNVFGN [HNRNPA2B1_Y300_D302V_YF] | 0.575 | 0.412 | 0.434 | 0.481 | 0.476 | 0.423 | 0.406 | 0.396 | 0.449 | 0.508 | 0.483 | 0.338 | 0.328
20 | 0.64 | 0.902 | 0.481 | FLTQHYDAKPQ [ANG_Y38] | 0.732 | 0.609 | 0.58 | 0.637 | 0.581 | 0.67 | 0.557 | 0.583 | 0.869 | 0.741 | 1.14 | 0.658 | 0.613
21 | 2.18 | 1.31 | 0.964 | FNVLQYVVPKV [EIF3A_Y382_E386K] | 0.832 | 0.383 | 1.02 | 1.09 | 0.607 | 0.386 | 1.41 | 0.465 | 2.2 | 0.797 | 1.1 | 0.348 | 9.24
22 | 0.591 | 1.24 | 0.566 | FQKNVYSEELR [LMNA_Y211_I210V] | 0.674 | 0.68 | 0.449 | 0.456 | 0.48 | 0.486 | 0.518 | 0.613 | 0.672 | 0.727 | 0.418 | 0.417 | 0.535
23 | 0.444 | 0.772 | 0.537 | FQLENCCNGGG [INS_Y108_Y108C_YF] | 0.896 | 0.467 | 0.523 | 0.509 | 0.586 | 0.504 | 0.516 | 0.445 | 0.85 | 0.944 | 0.442 | 0.564 | 0.546
24 | 0.666 | 0.867 | 0.422 | FQRLQYIKQLG [SAMHD1_Y146_R145Q] | 0.715 | 0.476 | 0.517 | 0.92 | 0.705 | 0.418 | 0.404 | 0.374 | 0.934 | 0.854 | 0.451 | 0.453 | 0.665
25 | 1.13 | 0.942 | 0.667 | FRAPGYREVVI [TNS2_Y673_YF] | 0.52 | 0.409 | 0.446 | 0.466 | 0.422 | 0.416 | 0.467 | 0.399 | 0.55 | 0.618 | 0.502 | 0.325 | 0.525
26 | 1.07 | 1.14 | 0.743 | FRTGHYLCNAC [GATA1_Y223_D218Y_YF] | 0.62 | 0.401 | 0.625 | 0.479 | 0.484 | 0.443 | 0.399 | 0.44 | 0.53 | 0.634 | 0.566 | 0.363 | 0.393
27 | 0.748 | 1 | 0.515 | FSGKAYADEER [CRIM1_Y826] | 0.895 | 0.496 | 0.566 | 0.565 | 0.571 | 0.499 | 0.395 | 0.463 | 0.837 | 1.03 | 0.694 | 0.486 | 0.786
28 | 2.77 | 1.01 | 0.689 | FSLIHYAGIVV [MYH7_Y582_D587V] | 1.13 | 0.621 | 0.777 | 0.652 | 0.59 | 0.568 | 0.45 | 0.532 | 1.3 | 1.37 | 0.482 | 0.729 | 1.04
29 | 0.906 | 0.83 | 0.596 | GCVSKYSGVFS [TUBGCP6_Y1624] | 0.815 | 0.463 | 0.51 | 0.433 | 0.458 | 0.411 | 0.514 | 0.357 | 0.81 | 0.964 | 0.321 | 0.403 | 0.619
30 | 0.812 | 1.01 | 0.612 | GDEAIYATVAG [NRTKtide_2018] | 1.59 | 7.59 | 3 | 12.1 | 15.5 | 9.26 | 9.16 | 10.7 | 0.803 | 2.64 | 3.87 | 13.4 | 22.1
31 | 0.632 | 0.875 | 0.706 | GDEEDYFEIPG [EGFR_opt_F_2015] | 2.75 | 0.628 | 5.08 | 0.571 | 0.723 | 0.532 | 0.532 | 0.504 | 1.21 | 1.22 | 4.57 | 0.5 | 0.78
32 | 0.701 | 0.821 | 0.407 | GDEVEYMLVSF [GCLC_Y53] | 2.31 | 1.16 | 3.39 | 0.665 | 0.829 | 1.15 | 0.473 | 0.841 | 0.976 | 1.1 | 3.97 | 2.43 | 0.677
33 | 0.534 | 0.851 | 4.99 | GELQGYDIMEP [MSH2_Y863_S860L] | 1.23 | 0.436 | 0.666 | 0.554 | 0.522 | 0.508 | 0.419 | 0.412 | 1.13 | 1.13 | 0.445 | 0.471 | 0.658
